Results as given in the nanobody polyreactivity screen of Harvey et al. (2022).

Assay: yeast display, Sf9 membrane polyspecificity reagent, FACS + sequencing; frameworks hold sequencing errors
Method in brief: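 After 36–48 hours of galactose induction, yeast (Saccharomyces cerevisiae BJ5465) displaying a synthetic nanobody library were stained at 4 °C for 1 hour with 10% biotinylated, detergent-solubilized Sf9 membrane reagent. Streptavidin microbeads enriched the stained cells before FACS sorting into low and high (top ~1%) gates on anti-HA and streptavidin fluorescence. Each clone's polyreactivity label reflects its gate of origin.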

Row | Sequence | polyreactivity (PSR sort gate)
1 | QVQLVESGGGLVQAGGSLRLSCAASGSIFVVYAMGWYRQAPGKEREMVAVISNGGTTNYADSVKGRFTISRDNAKNTVYLQMNSLKPEDTAVYYCAKASSRRYWTIRDGDYWGQGTQVTVSS | low polyreactivity
2 | QVQLVESGGGLVQAGGSIRLSCAASGRTFHYNVMGGYRQAPGNERELVAAITNTGGSTYYADSVKGRFTISRDNAKNTVYLQMYSLKPVDTAVYYCAAVIWGRRYGAYPYEYWGQGTQVTVSS | low polyreactivity
3 | QVQLVESGGGLVQAGGILRLSCAASGRIFQPYAMGWYRQAPGKERELVAAISRGGTTYYADSVKGRFTISRDNAKNTVYLQMNSLKTEDTAVYYCAAPSYYRYDYWGQGTQVTVSS | high polyreactivity
4 | QDQLVESGGGLVQAGGSLRISCDASGTTFQTYVMGWYRQAPGKERELVAAISSGGSTNYADSVKGRFTISRDNAKNTVYLQMNSLKPEDTAVYYCAKRWPYFRRGKDGYWGQGTQVTVSS | low polyreactivity
5 | QVQLVESGGGLVQAGGSLRLSCAASGRTFISNVMGWYRQAPGKERELVAAIRSSGRTYYADSVKGRFTISRDNAKNTVYFQMNSLKPEDTAVYYCAAPGGLLGSGYWGQGTQVTVSS | low polyreactivity
6 | QVQLVESGGGLVQAGGSLRLSCAASGIIFYQYAMGWYRQAHGKERELVAAISSRGGSTYYADSVKGRFTISLDNAKNTVYLLMNSLKPEDTAVYYCAAGSTGSTDGYWGQGTQVTVSS | high polyreactivity
7 | LVQLQESGGGLVQAGGSLRLSCAASGTISPGGYMGWYRQAPGKERELVASINVGGSTNYADSVKGRFTISRDNAKNTVYLQMKSLKPEDNAVYYCAVWGRNRLQLSYWGQGTQVTVSS | low polyreactivity
8 | QVQLVESGGGLVQAGGSLRLSCAASGIIFAWYAMGWYRQAPGKERELVAAISGRGGRTYYADSVKGRFTISRDNAKNTVYLQMNSLKPEDTPVYYCNKDKSVIYDYWGQGTQVTVSS | high polyreactivity
9 | QVQLVESGGGLVQAGGSLRLSSPASGRTIRSYAMGSYRQAPGKERELVAAINSSGGSTYYADSVKARFTISRDNAKNTVYLQMNSLKPEDTAVYYCNTDYSSTSPWRAANYWGQGTQVTVSS | high polyreactivity
10 | QLQLVESGGGLVQAGGSLRLSCAASGSTFGSNAMGWYRQAPGKERELVAAISTSSGSTYYAVSVKGRFTISRDNAMNTVYLQMNSMKPEDTAVYYCNADRHYVPYYSRPRYIPYDYWGQGTQVTVSS | high polyreactivity
11 | QVQLEESGGGIVQAGGSLRLSCAASGRTCSNYAMGWNRQAPGKERQLVASIRSSGTSTYYADSVKGRFTISRDIAKNTVYLKMNSLKPEDTAVYYCAKRYFTWSSTYNYWGQGTQVTVSS | high polyreactivity
12 | QVQLVESGGGLVQAGGSLRLSCASSGRIFSVYTMGWYRQAPGKERELVAAISSGASTNYADSVKGRFTISRDNAMNTVYLQMKSLKPEDTAVYYCAAVSPRRYRYDYWGQGTQVTVSS | low polyreactivity
13 | QDHLVESGGGLVQAGGTLRLSCAASGRIFVGYAMGWYRQAPGKERELVAGISRSGDSTYYADSVKGRFTISRDNAKNTVYLQMNSLKPEDTAVYYCAASWYKNQTRYYYWGQGTQVTVSS | high polyreactivity
14 | QVQLVESGGGLVQAGGSLGLSCAASGLIFQAYAMGWYRQAPGKERELVAAINWSGDSTYYADSVKGRFTISRDNAKYTVYLQMNSLKPEDTAVYYCAARYRRAKYGYWGQGTQVTVSS | high polyreactivity
15 | QDQLVESGGGLVQAGGSLRLSCAASGSRLGGYAMGWYRQAPGKERELVAAITWNGGRTYYADSVKWRFTISRDNAKNTVYLQMNILKPEDTAVYYCAADYSKGYEYWGQVTQVTVSS | high polyreactivity
16 | QVQIVESGGGLVQAGGSLRISCAASGYIFLPYAMGWYRQAPGKERELVADITSVGRTYYADSVKGRFTISRDNEKNTVYLQMNSLKPEDTAVYYCAKRHSLGYGRSRYSSGYDYWGQGTQVTVSS | high polyreactivity

Row | Sequence | polyreactivity (PSR sort gate)
17 | QVQLLESGGGLVQAGGSLRLSCAASGSIFWYNAMGWYRQAPGKERELVATISSRGDGTYYADSVKGRFTISRDNAKNTVYLQMNSLKPEDTAVYYCNKYRQQGWEFDYWGQGTQVTVSS | high polyreactivity
18 | QVQLVESGGGLVQAGGSLRLSCAASGRTFYSYAMGWYRQAPGKEWVLVAAISKRGTSTYYADSVKGRFTISRDNAKNTVYLQMNTLKPEDTAVYYCAAAYRGREVEYTSWGQGTQVTVSS | high polyreactivity
19 | QVQLVESGGGLVQAGGSLRLSCAASGSIFISYAMGWYRQAPGKERELVAAISRSAGRTYYADSVKGRFTISRDNAKNTVYLQMNSLKPEDTAVYYCAASGYKNGVYTYGYWGQGTQVTVSS | high polyreactivity
20 | QVQLVESGGRLVQAGGSLRLSCAPSGRIFWAYAMGWYRPAPGKERELVAAITSGGSTYYADSVKGRFTISRDNAKNTVYLQMNSLKPEDTAVYYCAVGSKWVDDSPEDVYWGQGTQVTVSS | low polyreactivity
21 | QVQLVESGGGLVQAGGSLRLSCAASGSIFHGNAMGWYRQAPGKERELVAAITARGGRTYYADSVKGRFTISRDNAKNTVYLQMNSLKPEDTAVYYCNAVHRYERDYWGQGTQVTVSS | high polyreactivity
22 | QVQLVESGGGLVQAGGSLRLSCAASGSIVGTYAMGWYRQAPGKERELVAAITWRGGNTYYADSVKGRFTISRDNAKNTVYLQMNSLKPEDTAVYYCAARGYKSSRRYYYWGQGTQVTVSS | high polyreactivity
23 | QVQLVESGGGLVQAGGSLRLSCAASGSIFYPYAMGWYRQAPGKERELVAAISWSGTRTYYADSVKGRFTISRDNAKNTVYLQMNSLKPEDTAVYYCAAYLPGYREQVDTNSWGQGTQVTVSS | low polyreactivity
24 | QVQLVESGGGLVQAGGSLRLSCAASGSTIKTYATMGWYRQAPGKERELVAAITACTSTNYADSVKGRFTISRDNAKNTVYLQMNSLKPEDTAVYYGAADDYYNWYLGEPGDYWGQGTQVTVSS | low polyreactivity
25 | QVQLVESGGGLVQAGGSLRLSCAASGRIFSLNDMGWYRQAPGKERELVATIRGRGTSTYYADSVKGRFTISRDNAKNTVYLQMNSLKPEDTAVYYCAARGHGAYGYWGQGSQVTVSS | low polyreactivity
26 | QVQLEETGGGLVQAGGSLRLSCAASGSIFHYNAMGWYRQAPGKEREFVAAITGGGGTYYADSVKGRCTISRDNAKNTVYFQMNSLKPEDTGVYYCAAQSRTSFRFNYWGQVTQVTVSS | high polyreactivity
27 | QVQLVESGGGLVQAGGSLRLSCAASGFTFTAYAMGWYRQAPGKERELVAAISRSGGSTSYADSVKGRFTISRDNAKNTVYLQMNSLKPEDTAVYYCAAGRVGWGQGTQVTVSS | high polyreactivity
28 | QVQLVESGGGLVQAGGSLRLSCAASGRIFRYNAMGWYRQAPGKERELVATISRGGGSTYYADSVKGRFTISLDNAKNTVYLQMNSLKPEDTAVYYCATRYYQDIVGYSRYDYWGQGTQVTVSS | high polyreactivity
29 | QVQLVESGGGLVQAGGSLRLSCAASGRIFSGYAMGWYRQAPGKERELVAAITWNGVSTYYADSVKGRFTISRDNAKNTVYLQMNSLKPEDTAVYYCNAEVYSDPYNDHDYWGQGTQVTVSS | low polyreactivity
30 | QVQLQESAGGLEQAGGSLRLSCAASAYISDIGTKGWYRQAPRKEREFVATIVVGSTTNYADSVKGRFTISRDNAKNTVYLQPESGRYRGVFLRGWLLPVGKFTYWGQGTQETVSS | low polyreactivity
31 | QVQLVESGGGLVQAGGSLRLSCAASGNIFTYYVRGWYRQEPGKERELVAAISRRGGSTYYADSVKGRFTISRDFAKNTVYLQMNSLKPEDTAVYYCAKKYPRDMDYWGQGTQVTVSS | high polyreactivity
32 | QVQLVESGGGLVQAGGSLRLSCAASGSTLGYYTMGWYRQAPGKERELVAAISYGGGSTYYADSVKGRFTISRDNAKNTVYLQMNSLKPEDTAVYYCAARWGKSWRGYGYWGQGTQVTVSS | high polyreactivity
